Measured values published in the supplement of paper PMC10724198.
± gives the standard deviation of the averaged measurements.

Tests used:
Saccharomyces cerevisiae [1] = assay: protein stability index of tFT-peptide fusion (C-terminal peptide) (PSI (0-1 scale)); higher = more stable (slower turnover)
Method: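 MPS profiling in S. cerevisiae of the tFT-X12 degron library: putative degron peptides plus stable controls, 12 aa, fused to the C-terminus of a sfGFP-mCherry timer. Cells are FACS-sorted into 8 mCherry/sfGFP bins and deep-sequenced. PSI runs from 0 (unstable) to 1 (stable). Backgrounds are wild type, das1Δ and doa10Δ at 30 °C, and wild type, das1Δ, cdc34-1 and cdc53-1 at 37 °C; 2-3 technical replicates each.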

Saccharomyces cerevisiae [2] = assay: as above; details: genetic background: wild type; temperature: 30 C
[3] = genetic background: cdc34-1, temperature: 37 C
[4] = genetic background: cdc53-1, temperature: 37 C
[5] = genetic background: das1 deletion, temperature: 30 C
[6] = genetic background: das1 deletion, temperature: 37 C
[7] = genetic background: doa10 deletion, temperature: 30 C
[8] = genetic background: wild type, temperature: 30 C
[9] = genetic background: wild type, temperature: 37 C
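Further: PSI is a weighted mean of sequencing reads over stability bins, variants kept only with over 10 reads, mCherry proximal and sfGFP distal, peptide attached via GGGS linker.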

Row | Sequence | protein stability index (Saccharomyces cerevisiae [1]; [3]) | protein stability index (Saccharomyces cerevisiae [1]; [4]) | protein stability index (Saccharomyces cerevisiae [1]; [5]) | protein stability index (Saccharomyces cerevisiae [1]; [6]) | protein stability index (Saccharomyces cerevisiae [1]; [7]) | protein stability index (Saccharomyces cerevisiae [1]; [8]) | protein stability index (Saccharomyces cerevisiae [1]; [9]) | protein stability index (Saccharomyces cerevisiae [2])
1 | RFFVLSFFFLVS | 0.215 ± 0.013 | 0.335 ± 0.069 | 0.224 ± 0.023 | 0.416 ± 0.014 | 0.209 ± 0.01 | 0.212 ± 0.029 | 0.384 ± 0.0071 | 0.282 ± 0.024
2 | LLVCLGYFLFLG | 0.37 ± 0.025 | 0.372 ± 0.031 | 0.313 ± 0.024 | 0.484 ± 0.055 | 0.338 ± 0.0061 | 0.288 ± 0.051 | 0.453 ± 0.022 | 0.403 ± 0.0091
3 | SIIRHLFHPSST | 0.67 ± 0.026 | 0.7184 ± 0.0046 | 0.643 ± 0.0091 | 0.72688 ± 9e-05 | 0.65 ± 0.018 | 0.659 ± 0.03 | 0.695 ± 0.018 | 0.709 ± 0.013
4 | QGGTWKKLVKMI | 0.573 ± 0.05 | 0.6963 ± 0.006 | 0.643 ± 0.055 | 0.7165 ± 0.0019 | 0.0823 ± 0.02 | 0.101 ± 0.018 | 0.165 ± 0.019 | 0.226 ± 0.035
5 | FCGWLGVYLVKG | 0.5909 ± 0.001 | 0.6581 ± 0.00083 | 0.484 ± 0.026 | 0.656 ± 0.0023 | 0.481 ± 0.035 | 0.49 ± 0.015 | 0.668 ± 0.062 | 0.494 ± 0.076
6 | LGVLVVAFCGGC | 0.488 ± 0.041 | 0.554 ± 0.0076 | 0.354 ± 0.034 | 0.541 ± 0.0069 | 0.325 ± 0.017 | 0.347 ± 0.023 | 0.5327 ± 0.00083 | 0.409 ± 0.031
7 | WVRLWGVLEAQG | 0.349 ± 0.013 | 0.445 ± 0.022 | 0.334 ± 0.028 | 0.369 ± 0.0011 | 0.344 ± 0.028 | 0.332 ± 0.012 | 0.3675 ± 0.0028 | 0.3627 ± 0.0029
8 | VVVFGWIGYLYL | 0.366 ± 0.028 | 0.499 ± 0.05 | 0.311 ± 0.044 | 0.511 ± 0.021 | 0.282 ± 0.019 | 0.288 ± 0.044 | 0.482 ± 0.062 | 0.327 ± 0.071
9 | QVSHLFAAVQLA | 0.6103 ± 0.0049 | 0.687 ± 0.018 | 0.555 ± 0.0081 | 0.65 ± 0.0091 | 0.337 ± 0.021 | 0.364 ± 0.051 | 0.573 ± 0.011 | 0.4485 ± 0.00088
10 | LFLSIFFFHLLF | 0.314 ± 0.023 | 0.251 ± 0.049 | 0.338 ± 0.041 | 0.4359 ± 0.0036 | 0.439 ± 0.045 | 0.313 ± 0.01 | 0.385 ± 0.041 | 0.37 ± 0.033
11 | RTFPYSALSFVS | 0.618 ± 0.032 | 0.712 ± 0.013 | 0.652 ± 0.046 | 0.718 ± 0.015 | 0.216 ± 0.022 | 0.235 ± 0.045 | 0.445 ± 0.048 | 0.457 ± 0.013
12 | GGLFRWCVWRIV | 0.413 ± 0.02 | 0.5292 ± 0.0032 | 0.545 ± 0.025 | 0.6377 ± 0.0015 | 0.102 ± 0.016 | 0.102 ± 0.0098 | 0.172 ± 0.025 | 0.145 ± 0.0086
13 | FFVRSWWVELLF | 0.642 ± 0.029 | 0.719 ± 0.017 | 0.558 ± 0.026 | 0.682 ± 0.024 | 0.296 ± 0.0038 | 0.335 ± 0.031 | 0.5502 ± 0.0055 | 0.424 ± 0.0097
14 | CPPPPPSLLLLC | 0.531 ± 0.025 | 0.6762 ± 0.0035 | 0.591 ± 0.012 | 0.666 ± 0.011 | 0.168 ± 0.0086 | 0.19 ± 0.013 | 0.29753 ± 0.00015 | 0.223 ± 0.0038
15 | FIRLTFLRLSCI | 0.546 ± 0.021 | 0.623 ± 0.03 | 0.51 ± 0.034 | 0.638 ± 0.031 | 0.183 ± 0.015 | 0.199 ± 0.0096 | 0.391 ± 0.0049 | 0.255 ± 0.022
16 | IHTFSVVVVVAA | 0.0536 ± 0.037 | 0.0437 ± 0.026 | 0.128 ± 0.029 | 0.135 ± 0.0088 | 0.0749 ± 0.0091 | 0.114 ± 0.031 | 0.128 ± 0.03 | 0.163 ± 0.022
17 | ECLRLTTKKKIN | 0.581 ± 0.079 | 0.733 ± 0.069 | 0.657 ± 0.055 | 0.704 ± 0.032 | 0.133 ± 0.0031 | 0.146 ± 0.039 | 0.197 ± 0.088 | 0.173 ± 0.011
18 | SPVPITVAVGCR | 0.473 ± 0.0085 | 0.491 ± 0.012 | 0.352 ± 0.034 | 0.5444 ± 0.0028 | 0.329 ± 0.008 | 0.357 ± 0.021 | 0.499 ± 0.018 | 0.407 ± 0.029
19 | LGGCVSYINLLA | 0.592 ± 0.032 | 0.682 ± 0.018 | 0.594 ± 0.022 | 0.6997 ± 0.0013 | 0.197 ± 0.024 | 0.236 ± 0.015 | 0.3917 ± 0.0035 | 0.308 ± 0.026
